In patent US20050171008A1, “Monomeric insulin” (priority 2002, published 2005):

Experiments:
[1] = Determination of self-association property by size exclusion chromatography (Superdex 75); assay type: physicochemical
Method: The molecular homogeneity was measured by Symmetry factor Fs. Fs=W0.05h/2A, wherein, W0.05 is the band width at 0.05 peak height and A is the width of the first half peak at 0.05 peak height. The change of average molecular weight was measured by plotting the distribution coefficient Kav vs. protein concentration. Kav=(Vr−V0)/(Vc−Vo), wherein Vr is the retention volume, Vo the void volume and Vc the total bed volume.

[2] = target: Lyspro (B28Lys, B29Pro insulin) (UniProt P01308); assay: self-association by size exclusion chromatography, Superdex 75, PBS pH 7.4, 80 umol/l protein

| Kav [2] | Substance | retention time on Superdex 75 column versus protein concentration ([1]; PBS pH7.4, 40-600 μmol/L) | Kav value versus protein concentration ([1]; PBS pH7.4, increasing concentration) | Fs value (symmetry factor, peak shape) versus protein concentration ([1]; PBS pH7.4, insulin: at concentrations above 400 umol/L) |
| --- | --- | --- | --- | --- |
|  | zinc free insulin: zinc free porcine insulin used as control in size exclusion chromatography | decreased with increasing concentration | decreased with increasing concentration | increased markedly |
| 0.48 | Lyspro (B28Lys, B29Pro insulin) (from UniProt P01308 25-110; P01308 25-110) |  |  |  |
